Laboratory results reported in patent US20230272028.

What was measured:
[1] = tested on: CTSL1_1 FRET substrate (ALFKSSFP)
[2] = tested on: CTSL1_2 8-mer FRET substrate Mca-ALFFSSPPK-Dnp
[3] = tested on: CTSL1_2 9-mer FRET substrate Mca-ALFFSSPPSK-Dnp

Chain of Cathepsin L (CTSL1), recombinant human (chain, as listed by the source): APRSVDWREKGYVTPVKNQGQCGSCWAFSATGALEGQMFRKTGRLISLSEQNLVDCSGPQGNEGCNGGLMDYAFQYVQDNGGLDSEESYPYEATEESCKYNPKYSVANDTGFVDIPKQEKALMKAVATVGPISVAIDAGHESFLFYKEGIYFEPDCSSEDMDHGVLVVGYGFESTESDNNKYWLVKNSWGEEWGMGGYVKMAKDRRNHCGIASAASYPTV
Chain of ALU30-15 (chain, as listed by the source): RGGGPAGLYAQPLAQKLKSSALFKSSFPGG
Chain of ALU30-18 (chain, as listed by the source): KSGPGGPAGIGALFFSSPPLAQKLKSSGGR
Chain of ALU30-6 (chain, as listed by the source): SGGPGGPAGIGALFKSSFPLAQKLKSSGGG
Chain of ALU30-9 (chain, as listed by the source): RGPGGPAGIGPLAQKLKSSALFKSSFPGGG
Chain of ALU30-11 (chain, as listed by the source): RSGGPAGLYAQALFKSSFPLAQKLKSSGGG
Chain of ALU30-16 (chain, as listed by the source): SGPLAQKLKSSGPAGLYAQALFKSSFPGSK
Chain of ALU30-7 (chain, as listed by the source): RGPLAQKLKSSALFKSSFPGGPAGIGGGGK
Chain of ALU30-12 (chain, as listed by the source): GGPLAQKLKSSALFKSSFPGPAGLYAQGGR
Chain of ALU30-8 (chain, as listed by the source): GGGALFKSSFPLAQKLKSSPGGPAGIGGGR
Chain of ALU30-10 (chain, as listed by the source): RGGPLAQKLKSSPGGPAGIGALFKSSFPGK
Chain of ALU30-13 (chain, as listed by the source): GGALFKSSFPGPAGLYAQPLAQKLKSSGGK
Chain of ALU30-17 (chain, as listed by the source): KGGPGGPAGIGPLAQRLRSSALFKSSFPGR
Chain of ALU30-14 (chain, as listed by the source): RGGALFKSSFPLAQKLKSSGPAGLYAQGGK
Chain of ALU30-5 (chain, as listed by the source): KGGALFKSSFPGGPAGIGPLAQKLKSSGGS
Chain of ALU30-1 (chain, as listed by the source): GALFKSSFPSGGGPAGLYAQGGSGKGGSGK

Cathepsin L (CTSL1), recombinant human
30-mer peptide degradation by recombinant enzyme (MSP-MS) (ALU30-10): The most efficiently cleaved peptides were those containing the FAPa_1, CTSL1_1 and ADAM17_2 motifs, in multiple orders | 30-mer peptide degradation by recombinant enzyme (MSP-MS) (ALU30-11): Peptides bearing the MMP14_1 motif with CTSL1_1 and ADAM17_2 were slightly lower efficiency | 30-mer peptide degradation by recombinant enzyme (MSP-MS) (ALU30-12): Peptides bearing the MMP14_1 motif with CTSL1_1 and ADAM17_2 were slightly lower efficiency | 30-mer peptide degradation by recombinant enzyme (MSP-MS) (ALU30-13): Peptides bearing the MMP14_1 motif with CTSL1_1 and ADAM17_2 were slightly lower efficiency | 30-mer peptide degradation by recombinant enzyme (MSP-MS) (ALU30-14): Peptides bearing the MMP14_1 motif with CTSL1_1 and ADAM17_2 were slightly lower efficiency | 30-mer peptide degradation by recombinant enzyme (MSP-MS) (ALU30-15): Peptides bearing the MMP14_1 motif with CTSL1_1 and ADAM17_2 were slightly lower efficiency | comparison of cleavage efficiencies across the 30-mer library (ALU30-15): it had slightly higher hepsin susceptibility and lower CTSL1 activity | 30-mer peptide degradation by recombinant enzyme (MSP-MS) (ALU30-16): Peptides bearing the MMP14_1 motif with CTSL1_1 and ADAM17_2 were slightly lower efficiency | 30-mer peptide degradation by recombinant enzyme (MSP-MS) (ALU30-17): CTSL1 treatment of the 30-mer peptide library produced cleavages in all peptides bearing a CTSL1_1 or CTSL1_2 motif | 30-mer peptide cleavage (mass spectrometry) (ALU30-18): Both peptides showed rapid disappearance of substrate (squares) and product formation from cleavage at the target scissile bond | 30-mer peptide degradation by recombinant enzyme (MSP-MS) (ALU30-18): CTSL1 treatment of the 30-mer peptide library produced cleavages in all peptides bearing a CTSL1_1 or CTSL1_2 motif | 30-mer peptide degradation by recombinant enzyme (MSP-MS) (ALU30-1): CTSL1 treatment of the 30-mer peptide library produced cleavages in all peptides bearing a CTSL1_1 or CTSL1_2 motif | 30-mer peptide degradation by recombinant enzyme (MSP-MS) (ALU30-5): The most efficiently cleaved peptides were those containing the FAPa_1, CTSL1_1 and ADAM17_2 motifs, in multiple orders | 30-mer peptide cleavage (mass spectrometry) (ALU30-6): Both peptides showed rapid disappearance of substrate (squares) and product formation from cleavage at the target scissile bond | 30-mer peptide degradation by recombinant enzyme (MSP-MS) (ALU30-6): The most efficiently cleaved peptides were those containing the FAPa_1, CTSL1_1 and ADAM17_2 motifs, in multiple orders | 30-mer peptide degradation by recombinant enzyme (MSP-MS) (ALU30-7): The most efficiently cleaved peptides were those containing the FAPa_1, CTSL1_1 and ADAM17_2 motifs, in multiple orders | 30-mer peptide degradation by recombinant enzyme (MSP-MS) (ALU30-8): The most efficiently cleaved peptides were those containing the FAPa_1, CTSL1_1 and ADAM17_2 motifs, in multiple orders | 30-mer peptide degradation by recombinant enzyme (MSP-MS) (ALU30-9): The most efficiently cleaved peptides were those containing the FAPa_1, CTSL1_1 and ADAM17_2 motifs, in multiple orders | FRET substrate cleavage by recombinant enzyme [1]: CTSL1 cleaves the FRET substrate bearing the CTSL1_1 motif highly efficiently | FRET substrate cleavage by recombinant enzyme [2]: the new CTSL1_2 motif was not cleaved in the context of an 8-mer FRET peptide | FRET substrate cleavage by recombinant enzyme [3]: This 9-mer FRET substrate bearing the CTSL1_2 motif produced comparable catalytic efficiency to the CTSL1_1 motif
